Fold tighter Kd than hIgG and Kd data for 2 substances are collected here from US20070148164A1.

Test [1] has as its target soluble monomeric hFcRn (human) (UniProt P55899). As to the kind of experiment: Biacore, IgGs immobilized on the same chip, soluble monomeric hFcRn; reference human IgG1.
A further test has as its target hIgG (human IgG). Nature of the test: Biacore, hIgG immobilized.

Sequence of soluble monomeric hFcRn (human) (P55899 24-297, chain 1 of 2): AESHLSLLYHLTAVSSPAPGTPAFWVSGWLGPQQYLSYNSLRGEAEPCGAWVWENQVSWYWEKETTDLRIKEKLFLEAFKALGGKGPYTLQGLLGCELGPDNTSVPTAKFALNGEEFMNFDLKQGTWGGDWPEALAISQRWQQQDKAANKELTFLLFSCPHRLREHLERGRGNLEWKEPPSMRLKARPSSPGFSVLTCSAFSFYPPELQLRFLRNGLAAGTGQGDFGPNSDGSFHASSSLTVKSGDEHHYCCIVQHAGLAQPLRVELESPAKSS
Sequence of soluble monomeric hFcRn (human) (P61769 21-119, chain 2 of 2, further chain): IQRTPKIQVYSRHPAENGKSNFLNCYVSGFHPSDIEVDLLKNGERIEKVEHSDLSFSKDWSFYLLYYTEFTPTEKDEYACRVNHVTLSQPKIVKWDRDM

Regarding rabbit IgG1 (antibody), the fold tighter Kd than hIgG in test [1] was determined as 2 fold.

In the test with hIgG (human IgG), “soluble monomeric hFcRn (from UniProt P55899 24-297; P61769 21-119) (receptor)” returned a Kd of 2 µM.
